Data published in the supplement of paper PMC12338614.
± gives the uncertainty stated by the source.

B1: library; numbered along this chain (parent)
chain: MEVVDPQQLGMFTEGELMSVGMDTFIHRIDSTEVIYQPRRKRAKLIGKYLMGDLLGEGSYGKVKEVLDSETLCRRAVKILKKKKLRRIPNGEANVKKEIQLLRRLRHKNVIQLVDVLYNEEKQKMYMVMEYCVCGMQEMLDSVPEKRFPVCQAHGYFCQLIDGLEYLHSQGIVHKDIKPGNLLLTTGGTLKISDLGVAEALHPFAADDTCRTSQGSPAFQPPEIANGLDTFSGFKVDIWSAGVTLYNITTGLYPFEGDNIYKLFENIGKGSYAIPGDCGPPLSDLLKGMLEYEPAKRFSIRQIRQHSWFRKKHPPAEAPVPIPPSPDTKDRWRSMTVVPYLEDLHGADEDEDLFDIEDDIIYTQDFTVPGQVPEEEASHNGQRRGLPKAVCMNGTEAAQLSTKSRAEGRAPNPARKACSASSKIRRLSACKQQ

Variants of: B1
Test: STK11 functional score (HeLa growth suppression), rescaled enrichment; synonymous median = 1, nonsense median = 0 (normalised score)
Details: with HeLa; variant type: missense
Method in brief: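 Functional scores are post/pre-selection log ratios corrected to wild type, rescaled to synonymous and nonsense medians, merged over codons and replicate transfections, and given bootstrapped error. They come from POPCode libraries of codon-optimised STK11 integrated by Bxb1 at an AAVS1 landing pad in HeLa, three regions each transfected three times, with BFP-negative, mCherry-positive integrants sorted by FACS and tiled gDNA amplicons sequenced on NextSeq.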

Row | Variant | STK11 functional score
1 | F148I | 1.31 ± 0.41
2 | F148H | -0.00697 ± 0.084
3 | F148E | 0.147 ± 0.17
4 | F148A | 0.105 ± 0.081
5 | F148D | -0.396 ± 0.083
6 | F148N | 0.0347 ± 0.095
7 | F148P | -0.111 ± 0.086
8 | F148M | 1.3 ± 0.082
9 | F148L | 0.829 ± 0.095
10 | F148G | -0.0254 ± 0.081
11 | F148K | -0.033 ± 0.18
12 | F148C | 0.493 ± 0.087
13 | R147W | 0.777 ± 0.16
14 | R147S | 0.855 ± 0.32
15 | R147G | 1.07 ± 0.086
16 | R147A | 0.87 ± 0.19
17 | R147V | 0.547 ± 0.098
18 | R147L | 0.461 ± 0.097
19 | R147Y | 1.47 ± 0.14
20 | R147F | 0.668 ± 0.1
21 | R147E | -0.0954 ± 0.2
22 | R147T | -0.149 ± 0.087
23 | R147D | -0.33 ± 0.084
24 | R147I | 1.22 ± 0.2

Row | Variant | STK11 functional score
25 | R147P | 0.188 ± 0.08
26 | R147C | 1.26 ± 0.076
27 | R147M | 1.06 ± 0.58
28 | R147Q | 0.506 ± 0.12
29 | K146Q | 1.52 ± 0.51
30 | K146R | 1.58 ± 0.39
31 | K146V | 0.152 ± 0.098
32 | K146I | 0.185 ± 0.12
33 | K146G | 0.814 ± 0.28
34 | K146L | 1.13 ± 0.13
35 | K146H | 1.49 ± 0.46
36 | K146W | 0.507 ± 0.098
37 | K146N | 1.16 ± 0.26
38 | K146D | 0.483 ± 0.13
39 | K146S | 1.33 ± 0.12
40 | K146A | 1.29 ± 0.39
41 | K146E | 1.14 ± 0.31
42 | E145Y | 1.12 ± 0.08
43 | E145W | 1.41 ± 0.34
44 | E145D | 1.11 ± 0.28
45 | E145L | 1.16 ± 0.17
46 | E145T | 1.54 ± 0.17
47 | E145M | 1.3 ± 0.13
48 | E145N | 1.46 ± 0.49

Row | Variant | STK11 functional score
49 | E145I | 1.14 ± 0.082
50 | E145F | 0.968 ± 0.087
51 | E145C | 1.41 ± 0.52
52 | E145R | 1.21 ± 0.43
53 | E145G | 0.981 ± 0.099
54 | E145H | 1.31 ± 0.2
55 | E145S | 1.45 ± 0.096
56 | E145A | 0.952 ± 0.13
57 | E145Q | 1.29 ± 0.22
58 | E145V | 0.644 ± 0.079
59 | E145P | 1.36 ± 0.4
60 | L140G | -0.0512 ± 0.082
61 | L140Y | -0.0286 ± 0.081
62 | L140F | -0.0987 ± 0.078
63 | L140N | 0.0882 ± 0.09
64 | L140W | -0.107 ± 0.081
65 | L140I | 1.15 ± 0.12
66 | L140S | -0.236 ± 0.08
67 | L140V | 0.909 ± 0.079
68 | L140P | -0.0157 ± 0.083
69 | L140R | 0.437 ± 0.11
70 | L140T | 0.232 ± 0.25
71 | L140Q | 1.54 ± 0.16
72 | L140E | -0.3 ± 0.087

Row | Variant | STK11 functional score
73 | L140K | 1.06 ± 0.089
74 | L140C | 0.555 ± 0.35
75 | L140H | -0.0286 ± 0.083
76 | L140A | 0.543 ± 0.27
77 | L140D | 0.0191 ± 0.11
78 | V143F | 1.01 ± 0.28
79 | V143Q | 0.751 ± 0.082
80 | V143S | 1.44 ± 0.36
81 | V143W | 0.622 ± 0.081
82 | V143I | 1.09 ± 0.16
83 | V143C | 1.26 ± 0.22
84 | V143H | 1.44 ± 0.18
85 | V143D | 1.46 ± 0.33
86 | V143P | -0.133 ± 0.082
87 | V143L | 1.17 ± 0.15
88 | V143A | 1.34 ± 0.084
89 | V143R | 1.29 ± 0.22
90 | V143T | 1.59 ± 0.19
91 | V143G | 1.33 ± 0.077
92 | V143N | 1.68 ± 0.4
93 | V143Y | 1.52 ± 0.22
94 | D141P | -0.241 ± 0.11
95 | D141W | 0.69 ± 0.12
96 | D141S | 1.21 ± 0.081

Row | Variant | STK11 functional score
97 | D141T | 0.00893 ± 0.31
98 | D141A | 1.01 ± 0.15
99 | D141E | 0.883 ± 0.17
100 | D141V | 1.18 ± 0.36
101 | D141G | 1.2 ± 0.36
102 | D141F | 1.52 ± 0.12
103 | D141L | 1.63 ± 0.23
104 | D141M | 1.22 ± 0.14
105 | S142R | 0.875 ± 0.4
106 | S142H | 1.44 ± 0.24
107 | S142W | 0.385 ± 0.093
108 | S142A | 1.63 ± 0.14
109 | S142P | 1.34 ± 0.13
110 | S142Y | 1.13 ± 0.24
111 | S142G | 1.62 ± 0.16
112 | S142T | 1.47 ± 0.18
113 | S142M | 0.933 ± 0.16
114 | S142D | 1.52 ± 0.39
115 | S142I | 0.895 ± 0.26
116 | S142C | 1.17 ± 0.2
117 | S142E | 1.55 ± 0.18
118 | S142N | 1.16 ± 0.33
119 | S142V | 1.51 ± 0.23
120 | S142F | 1.41 ± 0.43

Row | Variant | STK11 functional score
121 | S142Q | 1.69 ± 0.26
122 | S142K | 1.52 ± 0.34
123 | S142L | 1.16 ± 0.2
124 | E138R | -0.217 ± 0.089
125 | E138K | 1.59 ± 0.56
126 | E138I | 1.48 ± 0.37
127 | E138M | 1.27 ± 0.18
128 | E138L | 1.15 ± 0.22
129 | E138S | 1.26 ± 0.12
130 | E138D | 1.1 ± 0.21
131 | E138V | 0.367 ± 0.2
132 | E138W | 1.19 ± 0.16
133 | E138N | 0.232 ± 0.14
134 | E138Y | 1.08 ± 0.077
135 | P144D | 1.46 ± 0.29
136 | P144G | 1 ± 0.21
137 | P144V | 0.879 ± 0.22
138 | P144I | 0.87 ± 0.082
139 | P144N | 1.53 ± 0.23
140 | P144K | 1.63 ± 0.2
141 | P144L | 0.658 ± 0.083
142 | P144T | 1.18 ± 0.2
143 | P144H | 0.422 ± 0.16
144 | P144S | 0.825 ± 0.15

Row | Variant | STK11 functional score
145 | P144Q | 1.25 ± 0.34
146 | P144E | 1.63 ± 0.2
147 | P144W | 1.61 ± 0.15
148 | P144A | 1.08 ± 0.21
149 | P144M | 1.17 ± 0.64
150 | P144R | 0.996 ± 0.22
151 | M139C | 1.29 ± 0.23
152 | M139R | 0.918 ± 0.37
153 | M139W | 1.27 ± 0.78
154 | M139T | 1.18 ± 0.53
155 | M139S | 0.816 ± 0.1
156 | M139N | 0.949 ± 0.081
157 | M139K | 1.41 ± 0.18
158 | M139A | 1.39 ± 0.58
159 | M139G | 0.563 ± 0.088
160 | M139E | 0.269 ± 0.09
161 | M139Y | 1.53 ± 0.46
162 | M139D | -0.172 ± 0.088
163 | M139I | 1.01 ± 0.15
164 | M139P | 0.179 ± 0.18
165 | M139V | 0.965 ± 0.098
166 | M139Q | 1.11 ± 0.32
167 | M139L | 1.2 ± 0.11
